Assay results: patent US7968692B2, “Elongase genes and uses thereof” (Abbott Laboratories, priority 1998, dated 2011)
Changes are numbered by the printed parent chain.

What was measured:
Format in all cases: cell-based, Saccharomyces cerevisiae
S. cerevisiae 334 [1] = experiment: Pavlova sp. elongase PELO1 activity in yeast; details: for elongation of GLA to DGLA: 25 μM of GLA
Method: (§1) The construct pRPL-6-1 was transformed into S. cerevisiae 334 (Hoveland et al., supra) and screened for elongase activity. S. cerevisiae 334 containing the unaltered pYX242 vector was used as a negative control. The cultures were grown for 44 hours at 24°C, in selective media (Ausubel et al., supra), in the presence of 25 μM of GLA or EPA. In this study, DGLA or ω3-docosapentaenoic acid (DPA, 22:5n-3), respectively, was the predicted product of the elongase activity.
as §1, with “constructs pRPL-6-B2 and pRPL-6-A3 were” for “construct pRPL-6-1 was”, “24° C.,” for “24°C,”
To further confirm the substrate specificity of the algal elongation enzyme, described above and referred to herein as PELO1p, the recombinant yeast strain 334(pRPL-6-B2) was grown in minimal media containing n-6 fatty acids LA, GLA, DGLA, AA, or n-3 fatty acids ALA, STA, ETA, EPA, or 20:0, or 20:1. […] The levels of these fatty acids were 1.40% ADA and 2.54% […], respectively, of the total fatty acids in the strains containing the PELO1 sequence. […] No elongation of the saturated fatty acid 20:0, or monounsaturated fatty acid 20:1 was seen. Also, no elongation of the C18 substrates LA, GLA, ALA, or STA was seen.

S. cerevisiae 334 [2] = experiment: Comparison of MAELO and S. cerevisiae ELO2 PUFA elongase activity in baker's yeast; details: 25 μM GLA; FIG. 12
Excerpt: The ELO2 gene encoding for the yeast elongase was cloned from an S. cerevisiae genomic library (Origene, Rockville, Md.) using the primers RO514 (SEQ ID NO: 94) (5′-GGCTATGGATCCATGAATTCACTCGTTACTCAATATG-3′) and RO515 (SEQ ID NO: 95)(5′-CCTGCCAAGCTTTTACCTTTTTCTTCTGTGTTGAG-3′) incorporating the restriction sites (underlined) BamHI and HindIII (respectively). The ELO2 gene was cloned into the vector pYX242 at the BamHI and HindIII sites, designated pRELO, transformed into the S. cerevisiae host 334 (Hoveland et al., supra) and screened for PUFA elongase activity. The vector plasmid was used as a negative control and 334(pRAE-5) was grown to compare the PUFA elongase activity. The cultures were grown as previously described with no galactose in the media and 25 μM GLA added as a substrate. […] Additionally, when DGLA produced is expressed as a percent of the total lipids (shown in parenthesis, FIG. 12), the clones 334(pRELO-1) and 334 (pRELO-2) produced 0.153% and 0.2% DGLA respectively, while 334(pYX242) produced 0.185% DGLA. […] The M. alpina PUFA elongase activity is specific for this conversion as evidenced by the higher amount of DGLA produced compared to the control, 334(pYX242).

S. cerevisiae 334 [3] = experiment: Mouse elongase MELO7 activity in yeast; details: for amount of TPA: may not be significant
Method: The construct pRAE-87 was transformed into S. cerevisiae 334 (Hoveland et al., supra) and screened for elongase activity. The negative control strain was S. cerevisiae 334 containing pYX242 vector. The cultures were grown for 42-48 hours at 30° C., in selective media (Ausubel et al., supra), in the presence of 25 _M of GLA, AA, STA, EPA, DPA, or ADA. […] The levels of these fatty acids were 4.1% (DGLA), 6.33% (ADA), 3.4% (ETA), and 6.18% (DPA), respectively, of the total fatty acids in the strain containing the pRAE-87 sequence. […] MELO7 protein (MELO7) was not involved in the elongation of ADA. MELO7p also appeared to be involved in further elongation of the fatty acid DPA produced by two-carbon elongation to TPA when EPA was the added substrate, and when DPA was added. However, the small amounts of the product fatty acids (0.27% and 0.25% of TPA) may not be significant.

S. cerevisiae 334 [4] = experiment: T. aureum elongase TELO1 activity in yeast
Method: The constructs pRAT-4-A1 through pRAT-4-D1 were transformed into S. cerevisiae 334 (Hoveland et al., supra) and screened for elongase activity. S. cerevisiae 334 containing the unaltered pYX242 vector was used as a negative control. The cultures were grown for 48 hours at 24° C., in selective media (Ausubel et al., supra), in the presence of 25 (3)M of GLA or EPA. In this study, DGLA or ω3-docosapentaenoic acid (DPA, 22:5n-3), respectively, was the predicted product of the elongase activity. […] This was expected in that the cDNA sequence of pRAT-4-A3 had several stops at the 5′ end of the sequence, which would result in a truncated version of the translated enzyme (FIG. 76). Although the DGLA level was very low for 334(pRAT-4-A2), the GLA level was the lowest in this sample; therefore, the conversion level of the fatty acid to its elongated form was significant at 28.4%. What was not expected was that there was definite substrate specificity among the expressed enzymes. […]
To further confirm the substrate specificity of TELO1p, the recombinant yeast strain 334(pRAT-4-A7) was grown in minimal media containing 25 μM of various PUFAs. […] The levels of these fatty acids were 1.07% (C20:2n-6), 5.84% (DGLA), and 0.76% (ADA), respectively, of the total fatty acids in the lysates of 334(pRAT-4-A7). […] TELO1p is also involved in the elongation of n-3 PUFAs ALA, STA, and EPA (FIG. 88). […] The levels of these fatty acids were 2.71% ETrA, 4.19% (ETA), and 1.99% (DPA), respectively, of the total fatty acids in the strain containing the TELO1 sequence. […] When STA was added as a substrate, there was also an accumulation of DTA in the culture. The level of this fatty acid was 0.74%, which represented 15.0% conversion of ETA, the two-carbon chain elongated product from substrate STA.

[5] = 25 μM of EPA, 44 hours at 24° C.
[6] = 25 μM STA added as a substrate, FIG. 88

B1: pRPL-6-1: PELO1 clone with a single mutation relative to pRPL-6-B2 that dramatically reduced conversion (protein)
chain: MMLAAGYLLVLSAARQSFQQDIDNPNGAYSTSWTGLPIVMSVVYLSGVFGLTKYFENRKPMTGLKDYMFTYNLYQVIINVWCVVAFLLEVRRAGMSLIGNKVDLGPNSFRLGFVTWVHYNNKYVELLDTLWMVLRKKTQQVSFLHVYHHVLLMWAWFVVVKLGNGGDAYFAGLMNSIIHVMMYSYYTMALLGWSCPWKRYLTQAQLVQFCICLAHSTWAAVTGAYPWRICLVEVWVMVSMLVLFTRFYRQAYAKEAKAKEAKKLAQEASQAKAVKAE
modifications: Pavlova sp. (specific species unknown)
DPA, of total fatty acids (S. cerevisiae 334 [1]; [5]): 0.34%
EPA (substrate), of total fatty acids (S. cerevisiae 334 [1]; [5]): 32.28%
elongation of GLA to DGLA (S. cerevisiae 334 [1]; 44 hours at 24° C.): no conversion of GLA to DGLA was seen

B2: PELO1: Pavlova sp. 459 elongase (SEQ ID NO:119) from plasmid pRPL-6-B2 (protein)
chain: B1 chain with A171G
modifications: Pavlova sp. (specific species unknown)
conversion of the substrate EPA to DPA (S. cerevisiae 334 [1]; 25 μM of EPA, 44 hours at 24° C., FIG. 99): significant levels of conversion
elongation of GLA to DGLA (S. cerevisiae 334 [1]; 44 hours at 24° C.): GLA was not elongated to DGLA
elongation of saturated fatty acid 20:0 or monounsaturated fatty acid 20:1 (S. cerevisiae 334 [1]; FIG. 101): No elongation
elongation of the C18 substrates LA, GLA, ALA, or STA (S. cerevisiae 334 [1]; FIG. 101): no elongation
conversion of AA to ADA (S. cerevisiae 334 [1]; substrate AA, FIG. 101): 14.0%
level of ADA, of the total fatty acids (S. cerevisiae 334 [1]; substrate AA, FIG. 101): 1.40%
conversion of EPA to product elongated by two carbon atoms (S. cerevisiae 334 [1]; substrate EPA, FIG. 101): 14.1%
level of EPA (so in the source), of the total fatty acids (S. cerevisiae 334 [1]; substrate EPA, FIG. 101): 2.54%

B3: 334(pRELO-1): individual clone of S. cerevisiae 334 overexpressing S. cerevisiae elongase ELO2 in pYX242 (pRELO) (protein, UniProt P25358 1-347, looked up)
Fatty acid elongase 2: MNSLVTQYAAPLFERYPQLHDYLPTLERPFFNISLWEHFDDVVTRVTNGRFVPSEFQFIAGELPLSTLPPVLYAITAYYVIIFGGRFLLSKSKPFKLNGLFQLHNLVLTSLSLTLLLLMVEQLVPIIVQHGLYFAICNIGAWTQPLVTLYYMNYIVKFIEFIDTFFLVLKHKKLTFLHTYHHGATALLCYTQLMGTTSISWVPISLNLGVHVVMYWYYFLAARGIRVWWKEWVTRFQIIQFVLDIGFIYFAVYQKAVHLYFPILPHCGDCVGSTTATFAGCAIISSYLVLFISFYINVYKRKGTKTSRVVKRAHGGVAAKVNEYVNVDLKNVPTPSPSPKPQHRRKR
DGLA produced as a percent of the total lipids (S. cerevisiae 334 [2]): 0.153%
amount of 20:3n-6 or DGLA produced relative to negative control pYX242 (S. cerevisiae 334 [2]): twice

B4: 334(pRELO-2): individual clone of S. cerevisiae 334 overexpressing S. cerevisiae elongase ELO2 in pYX242 (pRELO) (protein, UniProt P25358 1-347, looked up)
Fatty acid elongase 2: B3 Fatty acid elongase 2
DGLA produced as a percent of the total lipids (S. cerevisiae 334 [2]): 0.2%
amount of 20:3n-6 or DGLA produced relative to negative control pYX242 (S. cerevisiae 334 [2]): twice

B5: MELO7: second mouse PUFA elongation enzyme (SEQ ID NO:6), homologue of HSELO1, expressed from pRAE-87 (protein, listed as Mus musculus)
chain: MEHFDASLSTYFKAFLGPRDTRVKGWFLLDNYIPTFVCSVIYLLIVWLGPKYMKNRQPFSCRGILQLYNLGLTLLSLYMFYELVTGVWEGKYNFFCQGTRSAGESDMKIIRVLWWYYFSKLIEFMDTFFFILRKNNHQITVLHVYHHATMLNIWWFVMNWVPCGHSYFGATLNSFIHVLMYSYYGLSSIPSMRPYLWWKKYITQGQLVQFVLTIIQTTCGVFWPCSFPLGWLFFQIGYMISLIALFTNFYIQTYNKKGASRRKDHLKGHQNGSVAAVNGHTNSFPSLENSVKPRKQRKD
amount of TPA (S. cerevisiae 334 [3]; DPA was added): 0.25%
amount of TPA (S. cerevisiae 334 [3]; EPA was the added substrate): 0.27%
conversion of AA to ADA (S. cerevisiae 334 [3]; substrate AA, FIG. 60): 36.0%
level of ADA, of the total fatty acids (S. cerevisiae 334 [3]; substrate AA, FIG. 60): 6.33%
elongation of ADA (S. cerevisiae 334 [3]; substrate ADA): not involved
conversion of EPA to DPA (S. cerevisiae 334 [3]; substrate EPA, FIG. 60): 57.4%
level of DPA, of the total fatty acids (S. cerevisiae 334 [3]; substrate EPA, FIG. 60): 6.18%
level of DGLA, of the total fatty acids (S. cerevisiae 334 [3]; substrate GLA, 42-48 hours at 30° C., FIG. 60): 4.1%
conversion of GLA to DGLA (S. cerevisiae 334 [3]; substrate GLA, FIG. 60): 78.7%
conversion of STA to ETA (S. cerevisiae 334 [3]; substrate STA, FIG. 60): 81.0%
level of ETA, of the total fatty acids (S. cerevisiae 334 [3]; substrate STA, FIG. 60): 3.4%

B6: TELO1: Thraustochytrium aureum 7091 elongase (SEQ ID NO:7) from plasmid pRAT-4-A7 (protein, listed as Thraustochytrium aureum)
chain: MANSSVWDDVVGRVETGVDQWMDGAKPYALTDGLPMMDVSTMLAFEVGYMAMLLFGIPIMKQMEKPFELKTIKLLHNLFLFGLSLYMCVETIRQAILGGYKVFGNDMEKGNESHAQGMSRIVYVFYVSKAYEFLDTAIMILCKKFNQVSFLHVYHHATIFAIWWAIAKYAPGGDAYFSVILNSFVHTVMYAYYFFSSQGFGFVKPIKPYITTLQMTQFMAMLVQSLYDYLFPCDYPQALVQLLGVYMITLLALFGNFFVQSYLKKPKKSKTN
conversion of AA to ADA (S. cerevisiae 334 [4]; 25 μM AA, FIG. 88): 3.5%
level of ADA, of the total fatty acids (S. cerevisiae 334 [4]; 25 μM AA, FIG. 88): 0.76%
conversion of ALA to ETrA (S. cerevisiae 334 [4]; 25 μM ALA, FIG. 88): 43.3%
level of ETrA, of the total fatty acids (S. cerevisiae 334 [4]; 25 μM ALA, FIG. 88): 2.71%
conversion of EPA to DPA (S. cerevisiae 334 [4]; 25 μM EPA, FIG. 88): 11.5%
level of DPA, of the total fatty acids (S. cerevisiae 334 [4]; 25 μM EPA, FIG. 88): 1.99%
conversion of GLA to DGLA (S. cerevisiae 334 [4]; 25 μM GLA, FIG. 88): 78.6%
level of DGLA, of the total fatty acids (S. cerevisiae 334 [4]; 25 μM GLA, FIG. 88): 5.84%
conversion of LA to C20:2n-6 (S. cerevisiae 334 [4]; 25 μM LA, FIG. 88): 23.2%
level of C20:2n-6, of the total fatty acids (S. cerevisiae 334 [4]; 25 μM LA, FIG. 88): 1.07%
conversion of ETA to DTA (S. cerevisiae 334 [4]; [6]): 15.0%
level of DTA (S. cerevisiae 334 [4]; [6]): 0.74%
conversion of STA to ETA (S. cerevisiae 334 [4]; 25 μM STA, FIG. 88): 85.3%
level of ETA, of the total fatty acids (S. cerevisiae 334 [4]; 25 μM STA, FIG. 88): 4.19%
levels of DPA (S. cerevisiae 334 [4]; EPA added as a substrate, 48 hours at 24° C., FIG. 81): significant levels of DPA
